The record followed here is patent publication US20220002384A1 (published 2022).

In general, Kd refers to the free concentration of one partner at which half of the binding sites on the other are occupied at equilibrium, for simple one-to-one binding. A high value points to weaker binding.

This test addresses T1, AXL (R&D Systems cat#154-AL) (UniProt P30530 26-440).
T1 chain: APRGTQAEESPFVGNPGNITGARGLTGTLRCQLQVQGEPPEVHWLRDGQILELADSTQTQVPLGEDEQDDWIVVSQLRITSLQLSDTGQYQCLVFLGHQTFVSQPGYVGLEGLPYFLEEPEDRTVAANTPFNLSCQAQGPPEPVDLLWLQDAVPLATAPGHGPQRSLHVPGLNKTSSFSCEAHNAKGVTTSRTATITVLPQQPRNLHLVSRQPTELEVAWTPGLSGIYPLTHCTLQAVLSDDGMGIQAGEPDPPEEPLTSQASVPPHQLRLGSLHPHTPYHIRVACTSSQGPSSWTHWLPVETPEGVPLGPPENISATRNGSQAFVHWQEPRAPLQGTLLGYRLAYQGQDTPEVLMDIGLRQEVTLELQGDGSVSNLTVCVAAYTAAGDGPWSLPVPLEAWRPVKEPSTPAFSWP
In words: BLI. Background: Biolayer interferometry detects binding as a change in optical thickness at a sensor tip.

B1: AXL #56 (designed binder)
chain: NVSPPRRARVTDATETTITISWRVSPSTVVGLQVDAVPANGQTPIQRTIKPDVRSYTITGLQPGTDYKIYLYTLNVIGGSAHASSPVVIDAST
On to B1, for which binding was characterised by a dissociation constant (Kd) of 12 nM.

B2: AXL #44 (designed binder)
chain: NVSPPRRARVTDATETTITIRWEGRGVIGFQVDAVPANGQTPIQRTIKPDVRSYTITGLQPGTDYKIYLYTLPNIGTGHFSSSPVVIDAST
B2 yielded an equilibrium dissociation constant (Kd) of 4 nM.
